Assay: soluble on expression in E. coli; label from the status in PepcDB or PDB records
For “MSTVVDQEGNNKQQTVAVIGAGIIGINCALELQSLGYQVTLLDKEGIGLGCSKANAGHFATEQVFPLAEFSLLWQMPKLLFDPLGPVALSAKHFIKAIPWFMQFFNNMRPTLRNKNKKALQALNKNAIHHYTALLKAAEAEHLISLDGSLLVFETNDRTKVELMYQHYLAAGIAVKLLDKRQTLELEPNLSNNINYSLYFTDVAHTIDPLALSKTLAEFAMCKGMTFQQTAVTSVTQTQSGVTVEIDEQHLHVDHCVIACGAWSKKLLNGLNYHLPIEAERGYSLSLPISAAASALLSRPVASAERRFIITPMGKTLRLAGTVEYAGLNAPANYKRAEMLKGNAAYILKRLPENEEKQEAWMGCRPSLPDSLPVICQAPNHDKIFFALGHQHLGLTQGAITGKLIGQLVTGHSPEINIDPFCIRRFNLEHHHHHH”, the “soluble on expression in E. coli” value was “not soluble”. With “MSTYLIGDIHGCLDELLALLAQVNFDPQQDTLWLTGDLVARGPASLDVLRYVRSLGPAVRMVLGNHDLHLLAVYAGISRNKPKDRITPLLDAPDADELINWLRRQPVLQVDDQLKLIMAHAGITPQWDIETAKMCAREVEAVLSSDSYPLFLDAMYGDMPNNWSPELTGLARLRFSTNALTRMRFCFPNGQLDMICKDTPENAPAPLKPWFDLPRLVDPEYSIIFGHWASLEGKGVPEGIYGLDTGCCWGGDLTLLRWDDKRYFTQRAFKAEAEINNNNGFAAGEAVQH” the “soluble on expression in E. coli” value was “not soluble”. For “MSVASLPECVKNFFPTEQLEFSSSITADEKPVLHEVFQKHSCFSQCGEMIDEVSKKHPELGKRLATVLEGNKKRLDGLSPAAVEYAKKLIHMVTTTLCSLTVGKPIDDADAKRLHQEFQSLSSEDQAALRKNNPDIKF”, the “soluble on expression in E. coli” value was “not soluble”. With “MSVIYKVVTRPSDPRVPNSPKKYYPHLITLGQSVNLKYIAQKMQGYSSLSIGDIKSVIQNFVEKMKEQLLEGKSVNIEGLGVFMLTACSKGADAAKDVNAKSVDSVRIFFQANKELRITKTATRADEKLDLISLDEYLKKLNASVTPNDPDDGENGGGGNEGGDEEAPDPTV” the “soluble on expression in E. coli” value was “not soluble”. With “MSVLDISIIIANYNTEEFLRNCLNSIKSTVKNVKYEVIVTDNNSKDDSVTMIKNEFPWVKLIESKINGGFAYANNLAIKESSGKYIFLLNTDTVLLKDVIEKMVNYMDENKDVGLLGPKLLNRDMSHQTSVSGFPSFKREFYHIYKLKNILKIPILKKIIVAMSGKIGSKDVEQYMMNFKSIDEPREVQVLVGAALLVRRNVIDKIGMLDERYFMYYEEIDFCYQANKAGFKAVYYPNGEIIHYIGQAATKSRILEHHHHHH” the “soluble on expression in E. coli” value was “soluble”. With “MSVNFSPCVLIPCYNHGAMMPGVLARLKPFNLPCIVVDDGSDATTQQQLDSLLAEQPGVTLIRLAENAGKGAAVMRGLQAAADAGFSHAVQVDADGQHAIEDIPKLLALAEQQPAALISGQPIYDDSIPRSRLYGRWVTHVWVWIETLSLQLKDSMCGFRVYPVAPTLQLAKHATIGKRMDFDTEVMVRLYWQGNTSYFVPTRVTYPLDGLSHFDALKDNVRISLMHTRLFFGMLPRIPSLLMRRSSCHWARQSEVKGLWGMRLMLLVWRLLGRTAFSALLYPVVGVYWLTASRARKASQDWLARVRQHQPQAAKLNSYQHFLRFGNAMLDKIASWRGELQPGRDVLFAPGAEAALDVRDPRGKLLLASHLGDVEVCRALAKIQGYKTINALVFSENAQRFKQIMQEMAPQAGINLMPVTDIGPETAILLKEKLDNGEWVAIVGDRIAVNPQRGGDWRVCWSSFMGQPAPFPQGPFILASILRCPVNLIFALRQHGKLHIHCESFADPLQLPRGERQQALQNAIDHYAARLEHYALQSPLDWFNFFDFWQLPEIQDKE” the “soluble on expression in E. coli” value was “not soluble”. With “MSVNPFFDPRTLGEMVFGDNGRLDREYVPISENNDDLSDCRNEIVDTHEKFSVNLNVPDVKPEELKINLEGRKLSIKAEHQEIENDNISTTQTYSKSIVLPEDVDVTHLSSNLSEDGKLLIEVPKVEAKKTNFFGFLSKFRCMPESQ” the “soluble on expression in E. coli” value was “not soluble”. For “MSVSNKLGDLASKVYENVLLEEVKKYPRPRHIGIITDGNRRYARNVGISENEGHVKGKEKVEEVVDWCMELDIRIVTFYAFSTENFRRSPEEVDFLFHLIDNAFKSLLKDERVYKNRINVKVIGNLSILPAYLRQTIHIVEETTKNFNNYQLNLAIGYGGREEILDAIKRITRDAMDGKLNIDELDEEKFRMYLYDGRIPDPDLILRTSGEERISNFLLWQSAYSELYFSDVYWPEFSKLDFLRAIYSYQRRQRRFGR”, the “soluble on expression in E. coli” value was “soluble”. For “MSVWASRLKAMGLLENLLNRYTPRTSGTPVFAVIDTGTTGFNKRYDHIIELAAVRADAYFKPVDSWHALLNPDTNAVSTTRGTPPPTSALNPAVGVTRSEAS”, the “soluble on expression in E. coli” value was “not soluble”. With “MSWREKLGMIHIYTGNGKGKTTAALGLALRMLGSGGKVIIIQFMKAPKVYGEYFMAEKCNFKIESYGLPKFVHGKPDEEDIKAAKRALERAREVVKSGEWDLVILDEICVALGFGMLNIEEVKELIQEKAKNTELVLTGRYCPKELYELADYVTEMREIKHPYQRGILARRGVEY” the “soluble on expression in E. coli” value was “soluble”. For “MSYKGSSIPVCSRISSLYFFSVYLQDLADMEDRTSTSRCSSTTRIKPTKIAGFGTVPLLSSAGTNQSVLSTKSAKSCLSNTIAASMTEPQVSMTQVDRMYEDNLARKKRSMVAVSEFNKIYGQEYHPPSSSESTRSFYENIDAVYPSSKASESSSSSASTGSSDNRKDIEKWEKLDSEAESDIELFIKVSDCFD”, the “soluble on expression in E. coli” value was “not soluble”. In the case of “MSYPSLFAPLDLGFTTLRNRVLMGSMHTGLEEHPDGAERLAAFYAERARHGVALIVTGGIAPVPSGVVMTGGAMLNDASQLTPHRVVTDAVHAQGGKIALQILHTGRYSYQPHLVAPSAIQAPINRFMPHELTHDEILQLIDDFAHCAQLAREAGYDGVEVMGSEGYLINEFLTRRTNHRDDEWGGDYASRMRFAVEVVRAVRQRVGNDFIIIYRLSMLDLVENGGTFDETVQLAQAIEAAGASLINTGIGWHEARIPTIATPVPRGAFSWVTRKLKGHVSVPLIATNRINDPQVAETILTRGDADMVSMARPFLADAEFLTKAQSGRADEINTCIGCNQACLDRIFIGKVTSCLVNPRACHETHMPITPAIRKKNLAVVGAGPAGLAFAINAASRGHHVTLFDAQSEIGGQFTIARQIPGKEEFYETLRYYRRMIDVTGVTLKLNQRVNAEDLQPFDEAILACGIVPRRPPIDGIDHPKALTYLEVLRDKAPVGKRVAIIGCGGIGFDTAMYLSQHGESTSQNIAEFCTEWGIDTSLQQAGGLRPEGPRLARSPRQIVMLQRKTSKPGEGLGKTTGWIHRATLLARGVKMIPAVSYQKIDDDGLHLLIGGEPQLLEVDHVVICAGQEPRRELADPLRAAGKTVHLIGGCDVAMELDARRAIAQGTRLALEI”, the “soluble on expression in E. coli” value is reported as “not soluble”. In the case of “MSYPWSNKNGEAASSSKTTVAPPLSPPRYEKVLDFSTLDTQRHRYEVRDQANQRAVVSSAKAESSMIDKFCKENTRIQTNPGIDLPDDYGTDAIVANAIGDQRIVNNLKCVHVTTFNAVQQMSIQVIREGRGLVVEAPTGIGKTYAFLIPAIEAALKNRQSNCFEYTKPSPSILIMASTSALVDQLFNRCELILGLQCMDNVEPIRDIKIDKLVANHPFTKGQCDIAFCTIGKLKATIECGDVCLDNLKTIILDEADKMIDNCAFGPDINWILDQLKEENLENLQSCFFSATYNKNANGTIALTVLQMRMLGEDDPWSVIICPRMSGYITQRVVRVGRGRPNDIRSHPWVIKMGIIRKLIDDDLKETGCSKDGPYNETIAIFCETVQRVTQVTMALRQLGYNFKPVCSMITKNQQLVTVNDLEFRKIHGVVCTNILARGIDVSSVKHTIIMEMSADFDTYKHRIGRVGRDGCGGKSTVLVEHHQLQGGPASNVIEQLYNFMKESKEDIPQWMQEWIVARRNNNIDSWA”, the “soluble on expression in E. coli” value is reported as “not soluble”. For “MSYVTTKDGVQIFYKDWGPRDAPVIHFHHGWPLSADDWDAQLLFFLAHGYRVVAHDRRGHGRSSQVWDGHDMDHYADDVAAVVAHLGIQGAVHVGHSTGGGEVVRYMARHPEDKVAKAVLIAAVPPLMVQTPGNPGGLPKSVFDGFQAQVASNRAQFYRDVPAGPFYGYNRPGVEASEGIIGNWWRQGMIGSAKAHYDGIVAFSQTDFTEDLKGIQQPVLVMHGDDDQIVPYENSGVLSAKLLPNGALKTYKGYPHGMPTTHADVINADLLAFIRS”, the “soluble on expression in E. coli” value was “soluble”. In the case of “MTADANKSESLLCMDKAREAIKSGDTDKARRMLLKAKKLDPGQNIEFLTKKIDDMTNNTSSSSQTSSSRASEERSYAHDDHYDDPNLRNRKARSPVKKNGKTEPEPKQRSASRTPKLGVDYTSEQKELVERIRHCKDYYEILKIDKKASDDDIRKEYRKLALKLHPDKCRAPHATEAFKALGNAYAVLSDTDKRRQYDQYGAEAANSHTPTTRRRGGGHGAFFEHDYAHGFEAEFTPEEIFNMFFGGGFPTEQVRRRARYAQQQQYHHYEQQQSPYGPLLQLLPLIAIMVIGLLAQLMVGEPAYSLHQTSKFTIKRLTADLRVPYFVRTDFETSYRGRIRQVEQQVEDDYIQNLRMNCYKEQNLKETKLYRARWMRDEAMMRDAERTPLPSCIRLNEIYSH”, the “soluble on expression in E. coli” value is reported as “soluble”. In the case of “MTADRPALRTGDRDTRLSFGSNLSSFTDYLRGHAPELLPENRIGHRSHSTRGGDGMESGDLAPHGTTIVALTYKGGVLLAGDRRATQGNLIASRDVEAVYVTDEYSAAGIAGTAGIAIELVRLFAVELEHYEKIEGVPLTFDGKANRLASMVRGNLGAAMQGLAVVPLLVGYDLDADDESRAGRIVSYDVVGGRYEERAGYHAVGSGSLFAKSALKKIYSPDSDEETALRAAIESLYDAADDDSATGGPDLTRGIYPTAVTITQAGAVHVSEETTSELARRIVAERTEQGGSAR”, the “soluble on expression in E. coli” value is reported as “soluble”. With “MTAHFPFDNSYVALPPNFFARVAPTPVAAPRLIKLNRPLAVQLGLDPDLLETPEGAEILSGNQMPETAASIAMAYAGHQFGNFVPQLGDGRAILLGEVVDRNGVRRDIQLKGAGRTPFSRMGDGRAALGPVLREYIVSEAMAALGIPTTRSLAAVLTGETVLRDPIQPGAVLTRVASSHIRVGTFQYFAARGDLASVRALADHAIARHYPEAAQAPSPYLALLEGVIGRQAELVASWMMVGFIHGVMNTDNCSVAGETIDYGPCAFMDTFDPKTVYSSIDQFGRYAYGNQPPIALWNLTRLAECLVRLLADDDDKGIEIAQTALGGFAEQFNAAYLAKLAAKLGLFTSQPDDQQLSQEFLTALAKGEADFTLAFRRLSDAAVDPSDLGEVRALFADPAAFDEWAPRWRARIATEPQDATTRQAAMRRVNPAYIPRNHRIEAVIRAAVDRDDFAPFEEILTVLANPFEEKAEFARYAEPPQPHEQVLETFCGTAAALEHHHHHH” the “soluble on expression in E. coli” value was “soluble”. In the case of “MTAKMETTFYDDALNASFLPSESGPYGYSNPKILKQSMTLNLADPVGSLKPHLRAKNSDLLTSPDVGLLKLASPELERLIIQSSNGHITTTPTPTQFLCPKNVTDEQEGFAEGFVRALAELHSQNTLPSVTSAAQPVNGAGMVAPAVASVAGGSGSGGFSASLHSEPPVYANLSNFNPGALSSGGGAPSYGAAGLAFPAQPQQQQQPPHHLPQQMPVQHPRLQALKEEPQTVPEMPGETPPLSPIDMESQERIKAERKRMRNRIAASKCRKRKLERIARLEEKVKTLKAQNSELASTANMLREQVAQLKQKVMNHVNSGCQLMLTQQLQTF”, the “soluble on expression in E. coli” value is reported as “soluble”. For “MTALFCLELRTNIFLIMNDCIIINYWKGFIFSFHSYFFPFRFESSLRAHYPGKRNYSDFSVIPLPYYIDVRSFHICESQHIIALPLQIPLPYRMLIRMYPV”, the “soluble on expression in E. coli” value was “soluble”. For “MTATSDKVLKIQLRSASATVPTKGSATAAGYDIYASQDITIPAMGQGMVSTDISFTVPVGTYGRIAPRSGLAVKNGIQTGAGVVDRDYTGEVKVVLFNHSQRDFAIKKGDRVAQLILEKIVDDAQIVVVDSLEESARGAGGFGSTGN”, the “soluble on expression in E. coli” value was “not soluble”.
